Laboratory results from patent US20220105194A1, “CONJUGATE COMPRISING LIGAND, SPACER, PEPTIDE LINKER, AND BIOMOLECULE” (ASTELLAS PHARMA INC., priority 2019, published 2022).

B1: [Gd/DOTA-NH—(CH2CH2O)3—CH2—C(═O)—NH—CH2-(1,3-Ph)-C(═O)-Met-Gly-Lys*-Z2(#N)]p-Fab^2 (conjugate)
heavy: EVQLVESGGGLVQPGGSLRLSCAASGFNIRDTYMHWVRQAPGKGLEWVARIDPANGNSRYVPKFQGRFTISADTSRNTAYLQMNSLRAEDTAVYYCAPFGYYVSDYAMAYWGQGTLVTVSSASTKGPSVFPLAPSSKSTSGGTAALGCLVKDYFPEPVTVSWNSGALTSGVHTFPAVLQSSGLYSLSSVVTVPSSSLGTQTYICNVNHKPSNTKVDKKVEPKSCD
light: DIQLTQSPSSLSASVGDRVTITCRAGESVDIFGVGFLHWYQQKPGKAPKLLIYRASNLESGIPSRFSGSGSRTDFTLTISSLQPEDFATYYCQQTNEDPYTFGQGTKVEIKRTVAAPSVFIFPPSDEQLKSGTASVVCLLNNFYPREAKVQWKVDNALQSGNSQESVTEQDSKDSTYSLSSTLTLSKADYEKHKVYACEVTHQGLSSPVTKSFNRGEC
B2: Ex-No 10: (Y—S1—X)p-Fab^2: Y Gd/DOTA, S1 bond, X -Met-Ile-Lys*-Z2(#N)— (conjugate)
heavy: EVQLVESGGGLVQPGGSLRLSCAASGFNIRDTYMHWVRQAPGKGLEWVARIDPANGNSRYVPKFQGRFTISADTSRNTAYLQMNSLRAEDTAVYYCAPFGYYVSDYAMAYWGQGTLVTVSSASTKGPSVFPLAPSSKSTSGGTAALGCLVKDYFPEPVTVSWNSGALTSGVHTFPAVLQSSGLYSLSSVVTVPSSSLGTQTYICNVNHKPSNTKVDKKVEPKSCD
light: DIQLTQSPSSLSASVGDRVTITCRAGESVDIFGVGFLHWYQQKPGKAPKLLIYRASNLESGIPSRFSGSGSRTDFTLTISSLQPEDFATYYCQQTNEDPYTFGQGTKVEIKRTVAAPSVFIFPPSDEQLKSGTASVVCLLNNFYPREAKVQWKVDNALQSGNSQESVTEQDSKDSTYSLSSTLTLSKADYEKHKVYACEVTHQGLSSPVTKSFNRGEC
B3: [Gd/DOTA-NH—CH2-(1,3-Ph)-C(═O)-Met-Gly-Lys*-Z2(#S)]p-Fab^2 (conjugate)
heavy: EVQLVESGGGLVQPGGSLRLSCAASGFNIRDTYMHWVRQAPGKGLEWVARIDPANGNSRYVPKFQGRFTISADTSRNTAYLQMNSLRAEDTAVYYCAPFGYYVSDYAMAYWGQGTLVTVSSASTKGPSVFPLAPSSKSTSGGTAALGCLVKDYFPEPVTVSWNSGALTSGVHTFPAVLQSSGLYSLSSVVTVPSSSLGTQTYICNVNHKPSNTKVDKKVEPKSCD
light: DIQLTQSPSSLSASVGDRVTITCRAGESVDIFGVGFLHWYQQKPGKAPKLLIYRASNLESGIPSRFSGSGSRTDFTLTISSLQPEDFATYYCQQTNEDPYTFGQGTKVEIKRTVAAPSVFIFPPSDEQLKSGTASVVCLLNNFYPREAKVQWKVDNALQSGNSQESVTEQDSKDSTYSLSSTLTLSKADYEKHKVYACEVTHQGLSSPVTKSFNRGEC
B4: [Gd/DOTA-NH—CH2-(1,4-Ph)-NH—C(═O)-Met-Ile-NH—(CH2)2—Z(#N)]p-Fab^2 (conjugate)
heavy: EVQLVESGGGLVQPGGSLRLSCAASGFNIRDTYMHWVRQAPGKGLEWVARIDPANGNSRYVPKFQGRFTISADTSRNTAYLQMNSLRAEDTAVYYCAPFGYYVSDYAMAYWGQGTLVTVSSASTKGPSVFPLAPSSKSTSGGTAALGCLVKDYFPEPVTVSWNSGALTSGVHTFPAVLQSSGLYSLSSVVTVPSSSLGTQTYICNVNHKPSNTKVDKKVEPKSCD
light: DIQLTQSPSSLSASVGDRVTITCRAGESVDIFGVGFLHWYQQKPGKAPKLLIYRASNLESGIPSRFSGSGSRTDFTLTISSLQPEDFATYYCQQTNEDPYTFGQGTKVEIKRTVAAPSVFIFPPSDEQLKSGTASVVCLLNNFYPREAKVQWKVDNALQSGNSQESVTEQDSKDSTYSLSSTLTLSKADYEKHKVYACEVTHQGLSSPVTKSFNRGEC
B5: [Gd/DOTA-NH—(CH2CH2O)3—CH2—C(═O)—NH—CH2-(1,3-Ph)-C(═O)-Gly-Lys*—Z2(#N)]p-Fab^2 (conjugate)
heavy: EVQLVESGGGLVQPGGSLRLSCAASGFNIRDTYMHWVRQAPGKGLEWVARIDPANGNSRYVPKFQGRFTISADTSRNTAYLQMNSLRAEDTAVYYCAPFGYYVSDYAMAYWGQGTLVTVSSASTKGPSVFPLAPSSKSTSGGTAALGCLVKDYFPEPVTVSWNSGALTSGVHTFPAVLQSSGLYSLSSVVTVPSSSLGTQTYICNVNHKPSNTKVDKKVEPKSCD
light: DIQLTQSPSSLSASVGDRVTITCRAGESVDIFGVGFLHWYQQKPGKAPKLLIYRASNLESGIPSRFSGSGSRTDFTLTISSLQPEDFATYYCQQTNEDPYTFGQGTKVEIKRTVAAPSVFIFPPSDEQLKSGTASVVCLLNNFYPREAKVQWKVDNALQSGNSQESVTEQDSKDSTYSLSSTLTLSKADYEKHKVYACEVTHQGLSSPVTKSFNRGEC
B6: [Gd/DOTA-NH—CH2-(1,3-Ph)-C(═O)-Met-Gly-Lys*-Z2(#N)]p-Fab^2 (conjugate)
heavy: EVQLVESGGGLVQPGGSLRLSCAASGFNIRDTYMHWVRQAPGKGLEWVARIDPANGNSRYVPKFQGRFTISADTSRNTAYLQMNSLRAEDTAVYYCAPFGYYVSDYAMAYWGQGTLVTVSSASTKGPSVFPLAPSSKSTSGGTAALGCLVKDYFPEPVTVSWNSGALTSGVHTFPAVLQSSGLYSLSSVVTVPSSSLGTQTYICNVNHKPSNTKVDKKVEPKSCD
light: DIQLTQSPSSLSASVGDRVTITCRAGESVDIFGVGFLHWYQQKPGKAPKLLIYRASNLESGIPSRFSGSGSRTDFTLTISSLQPEDFATYYCQQTNEDPYTFGQGTKVEIKRTVAAPSVFIFPPSDEQLKSGTASVVCLLNNFYPREAKVQWKVDNALQSGNSQESVTEQDSKDSTYSLSSTLTLSKADYEKHKVYACEVTHQGLSSPVTKSFNRGEC
B7: [Gd/DOTA-NH—(CH2CH2O)3—CH2—C(═O)—NH—CH2-(1,3-Ph)-C(═O)-Met-Gly-Lys*-Z2(#S)]p-Fab^2 (conjugate)
heavy: EVQLVESGGGLVQPGGSLRLSCAASGFNIRDTYMHWVRQAPGKGLEWVARIDPANGNSRYVPKFQGRFTISADTSRNTAYLQMNSLRAEDTAVYYCAPFGYYVSDYAMAYWGQGTLVTVSSASTKGPSVFPLAPSSKSTSGGTAALGCLVKDYFPEPVTVSWNSGALTSGVHTFPAVLQSSGLYSLSSVVTVPSSSLGTQTYICNVNHKPSNTKVDKKVEPKSCD
light: DIQLTQSPSSLSASVGDRVTITCRAGESVDIFGVGFLHWYQQKPGKAPKLLIYRASNLESGIPSRFSGSGSRTDFTLTISSLQPEDFATYYCQQTNEDPYTFGQGTKVEIKRTVAAPSVFIFPPSDEQLKSGTASVVCLLNNFYPREAKVQWKVDNALQSGNSQESVTEQDSKDSTYSLSSTLTLSKADYEKHKVYACEVTHQGLSSPVTKSFNRGEC

Assays:
[1] = mouse, in vivo
Procedure: (§1) A Gd-labeled conjugate of the conjugate containing a peptide linker produced in one of the above Examples was administered from the tail vein of mice (BALB/c or BALB/c nu/nu) so that the protein mass was 0.02 mg (100 μL) per animal. After about 24 hours, the mice were sacrificed and the kidneys were removed, and the amount of Gd in the kidneys was measured using ICP-MS. The present test was carried out in 3 cases in each group, the mean value of the 3 cases was calculated, and the amount of Gd contained per kidney after administration was shown as a percentage (% of dose/tissue) of the total amount of Gd administered.
Based on the percentage of the control conjugate (% of dose/tissue), the proportion of decrease in the amount of Gd contained in the kidneys of each of the conjugates having a peptide linker was determined and shown in Table 28.

[2] = design: species or system mice (BALB/c nu/nu); conditions: mouse, in vivo
Procedure: A Gd-labeled conjugate of the conjugate containing a peptide linker produced in one of the above Examples was administered from the tail vein of tumor-bearing mice so that the protein mass was 0.02 mg (100 μL) per animal. As the tumor-bearing mice used in the present Example, mice (BALB/c nu/nu) that were in a tumor-bearing state brought about by transplanting human colorectal cancer cell line LS174T cells (ATCC(registered trademark); CL-188) at 2.0 to 5.0×10^6 cells/mouse subcutaneously on the back before administration of the sample were used. 24 hours after administration of the sample, the mice were sacrificed, the kidneys and the tumor were removed, and the amounts of Gd in the kidneys and in the tumor were measured using ICP-MS. The present test was carried out in 3 cases in each group, and the mean value of the 3 cases was calculated. The amount of Gd contained per kidney after administration was shown as a percentage of the amount of Gd administered (% of dose/tissue), and the amount of Gd contained per g of tumor tissue was shown as a percentage of the total amount of Gd administered (% of dose/g).

[3] = design: species or system mice (BALB/c or BALB/c nu/nu); conditions: mouse, in vivo
Procedure: as §1

Molecule | Proportion of decrease (%) in the amount of Gd contained in the kidneys [1] [%] | Renal residual amount (cancer-bearing mice), % of dose/tissue [2] | Renal residual amount (cancer-bearing mice), Proportion of decrease (%) [2] [%] | Renal residual amount (normal mice), % of dose/tissue [3] | Renal residual amount (normal mice), Proportion of decrease (%) [3] [%]
B1 | 78.0 | 8.40 % of dose/tissue | 67.48 |  | 
B2 |  |  |  | 20.10 % of dose/tissue | 31.46
B3 | 58.3 | 12.33 % of dose/tissue | 52.26 |  | 
B4 |  | 5.77 % of dose/tissue | 77.68 | 2.60 % of dose/tissue | 91.13
B5 | 44.8 |  |  |  | 
B6 | 50.3 |  |  |  | 
B7 | 77.4 | 9.40 % of dose/tissue | 63.61 |  | 
